Test results reported in patent EP1728516A1.

How the values were obtained:
Test in all cases: cell-based or functional assay
[1] = target: endogenous wild-type PLB of cardiac myocytes or SR (species not stated at these places) (Rattus norvegicus (Rat)) (UniProt P61016)
[2] = target: endogenous wild-type PLB of adult rabbit myocytes (rabbit) (UniProt P61015)
[3] = target: endogenous wild-type PLB of rat cardiac myocytes (rat) (UniProt P61016)

Sequence of UniProt P61015 (P61015 whole entry): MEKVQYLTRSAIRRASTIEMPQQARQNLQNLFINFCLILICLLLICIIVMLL

Substance: PLB double point mutant K3E/R14E
- decrease in RT50 after plasmid transfection of myocytes [1]: 43%
- half-time for decay (RT50) of the indo 1 Ca2+ transient, neonatal myocytes (LacZ: 0.28 seconds) [1]: 0.2 s
- half-time for decay (RT50) of the indo 1 Ca2+ transient, percent of LacZ [1]: 73%
- decrease in RT50 against the LacZ control [2]: 25%
- increase in +dL/dt against the LacZ control [2]: 115%
- increase of fractional shortening against the LacZ control [2]: 74%
- lowering of the EC50 of SR Ca2+ uptake, adult rat myocytes [3]: 36%
